Assay results published in article PMC12416549 (2024).
Substitutions are numbered along the chain they refer to. Numbers in names are those of the source.

T1: TNFR1 (Homo sapiens, UniProt P19438)
T1 chain: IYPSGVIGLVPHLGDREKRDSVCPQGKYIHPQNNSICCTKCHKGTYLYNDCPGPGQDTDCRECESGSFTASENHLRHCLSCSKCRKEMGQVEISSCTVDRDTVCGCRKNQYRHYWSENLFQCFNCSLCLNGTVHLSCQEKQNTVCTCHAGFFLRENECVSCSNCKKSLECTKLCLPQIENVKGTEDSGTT

B1: D56F (designed binder)
chain: MTLQELLREEALRRAEAEAFRYALELLAEKFPEQKEYLLDLAEEIESQIRSLSGVFVEDVRKFLDKEWAWVKELLAEHPAELAEVEAARAARLAELRAEVEAKVAA
B2: R92V (designed binder)
chain: B1 chain with F56D, R92V
B3: Q4E (designed binder)
chain: B1 chain with Q4E, F56D
B4: M1M (designed binder)
chain: B1 chain with F56D
B5: L64Q (designed binder)
chain: B1 chain with F56D, L64Q
B6: W68Y (designed binder)
chain: B1 chain with F56D, W68Y
B7: E25Q (designed binder)
chain: B1 chain with E25Q, F56D
B8: A90E (designed binder)
chain: B1 chain with F56D, A90E
B9: L52V (designed binder)
chain: B1 chain with L52V, F56D
B10: A69R (designed binder)
chain: B1 chain with F56D, A69R
B11: L7V (designed binder)
chain: B1 chain with L7V, F56D
B12: A23I (designed binder)
chain: B1 chain with A23I, F56D
B13: A11Y (designed binder)
chain: B1 chain with A11Y, F56D
B14: Q4Y (designed binder)
chain: B1 chain with Q4Y, F56D
B15: R13A (designed binder)
chain: B1 chain with R13A, F56D
B16: L27P (designed binder)
chain: B1 chain with L27P, F56D
B17: E44Y (designed binder)
chain: B1 chain with E44Y, F56D
B18: L3K (designed binder)
chain: B1 chain with L3K, F56D
B19: K66F (designed binder)
chain: B1 chain with F56D, K66F
B20: Q4D (designed binder)
chain: B1 chain with Q4D, F56D
B21: E10Q (designed binder)
chain: B1 chain with E10Q, F56D
B22: L82H (designed binder)
chain: B1 chain with F56D, L82H
B23: E86N (designed binder)
chain: B1 chain with F56D, E86N
B24: Q34Y (designed binder)
chain: B1 chain with Q34Y, F56D
B25: L26P (designed binder)
chain: B1 chain with L26P, F56D
B26: T2W (designed binder)
chain: B1 chain with T2W, F56D
B27: A19V (designed binder)
chain: B1 chain with A19V, F56D
B28: S51Q (designed binder)
chain: B1 chain with S51Q, F56D
B29: E46N (designed binder)
chain: B1 chain with E46N, F56D
B30: I49L (designed binder)
chain: B1 chain with I49L, F56D
B31: A42E (designed binder)
chain: B1 chain with A42E, F56D
B32: L38D (designed binder)
chain: B1 chain with L38D, F56D
B33: E44I (designed binder)
chain: B1 chain with E44I, F56D
B34: E67S (designed binder)
chain: B1 chain with F56D, E67S
B35: A91S (designed binder)
chain: B1 chain with F56D, A91S
B36: L39G (designed binder)
chain: B1 chain with L39G, F56D
B37: A91G (designed binder)
chain: B1 chain with F56D, A91G
B38: L93C (designed binder)
chain: B1 chain with F56D, L93C
B39: F20P (designed binder)
chain: B1 chain with F20P, F56D
B40: W68N (designed binder)
chain: B1 chain with F56D, W68N

Molecular target: T1, TNFR1
Test: yeast display SC50

Binder	apparent Kd (screen) [nM]
B1	2.73
B2	0.593
B3	0.79
B4	0.49
B5	0.79
B6	0.49
B7	0.539
B8	0.49
B9	0.49
B10	0.539
B11	2.25
B12	0.653
B13	0.49
B14	0.49
B15	0.368
B16	7.78
B17	7.78
B18	2.48
B19	0.653
B20	0.539

Binder	apparent Kd (screen) [nM]
B21	13.8
B22	0.593
B23	1.05
B24	0.539
B25	13.8
B26	1.16
B27	0.446
B28	1.27
B29	0.593
B30	0.539
B31	0.956
B32	11.4
B33	0.869
B34	6.43
B35	0.79
B36	3
B37	0.49
B38	0.653
B39	7.07
B40	12.5
